Holding throughout (test): EMSA
Settings in all cases: tags: MBP fusion

One data set deals with ZFP SBS#994 (synthetic). The essentials: (§1)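 Purified ZFP was titrated against labeled double-stranded target (1 nM or lower, at least 10-fold below expected Kd) carrying the natural binding site with flanks. Binding buffer was 10 mM Tris pH 7.5, 100 mM KCl, 1 mM MgCl2, 0.1 mM ZnCl2, 5 mM DTT, 10% glycerol, 0.02% BSA, with equilibration for at least 45 min. Bound and free target were separated on a 10% polyacrylamide gel.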

The target of another data set is T1, ZFP SBS#939 (synthetic).
T1 chain: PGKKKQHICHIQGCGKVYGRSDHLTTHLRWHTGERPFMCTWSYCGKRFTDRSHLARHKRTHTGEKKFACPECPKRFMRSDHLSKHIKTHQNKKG
The essentials:
as §1

In the next data set the target is ZFP SBS#940 (synthetic). In a few lines:
as §1

Another data set addresses T2, ZFP SBS#1017 (synthetic).
T2 chain: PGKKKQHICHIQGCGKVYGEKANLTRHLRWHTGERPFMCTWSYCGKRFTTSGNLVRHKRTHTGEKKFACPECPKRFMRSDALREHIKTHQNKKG
In a few lines:
as §1

A further data set has as its target T3, ZFP SBS#985 (synthetic).
T3 chain: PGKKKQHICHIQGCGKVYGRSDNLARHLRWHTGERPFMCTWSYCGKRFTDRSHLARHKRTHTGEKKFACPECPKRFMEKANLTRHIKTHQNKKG
In a few lines:
as §1

In another data set the target is T4, ZFP SBS#984 (synthetic).
T4 chain: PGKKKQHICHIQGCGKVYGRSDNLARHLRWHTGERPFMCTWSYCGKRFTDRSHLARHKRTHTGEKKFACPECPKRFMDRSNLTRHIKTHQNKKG
In a few lines: as §1

The target of another data set is ZFP SBS#1001 (synthetic). The essentials: as §1
Chain of ZFP SBS#1001 (synthetic) (chain, as listed by the source): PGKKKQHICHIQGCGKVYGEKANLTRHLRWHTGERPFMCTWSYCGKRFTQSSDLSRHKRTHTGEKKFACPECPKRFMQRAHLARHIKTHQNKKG
Another data set concerns the target T5, ZFP SBS#983 (synthetic).
T5 chain: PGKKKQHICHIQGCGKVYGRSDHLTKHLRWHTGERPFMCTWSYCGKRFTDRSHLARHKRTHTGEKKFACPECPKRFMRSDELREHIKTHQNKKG
In a few lines:
as §1

Another data set addresses T6, ZFP SBS#982 (synthetic).
T6 chain: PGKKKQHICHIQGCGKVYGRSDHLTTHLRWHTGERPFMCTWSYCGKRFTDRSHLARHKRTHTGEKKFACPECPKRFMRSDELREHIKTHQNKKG
In a few lines:
as §1

The target in the next data set is T7, ZFP SBS#996 (synthetic).
T7 chain: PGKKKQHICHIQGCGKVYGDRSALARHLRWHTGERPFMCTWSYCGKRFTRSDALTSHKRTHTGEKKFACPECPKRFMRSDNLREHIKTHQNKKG
The essentials:
as §1

In another data set the target is T8, ZFP SBS#1000 (synthetic).
T8 chain: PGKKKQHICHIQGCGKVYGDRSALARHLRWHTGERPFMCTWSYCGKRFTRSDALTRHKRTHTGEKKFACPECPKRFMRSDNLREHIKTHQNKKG
In a few lines:
as §1

A further data set addresses T9, ZFP SBS#1016 (synthetic).
T9 chain: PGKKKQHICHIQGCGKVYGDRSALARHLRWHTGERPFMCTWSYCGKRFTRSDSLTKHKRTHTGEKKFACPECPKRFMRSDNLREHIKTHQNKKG
In a few lines:
as §1

A further data set deals with ZFP SBS#1015 (synthetic). The essentials: as §1
Chain of ZFP SBS#1015 (synthetic) (chain, as listed by the source): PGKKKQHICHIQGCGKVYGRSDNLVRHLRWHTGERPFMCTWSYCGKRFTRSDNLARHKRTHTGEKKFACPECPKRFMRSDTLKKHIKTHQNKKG
For another data set, the target named is T10, ZFP SBS#1002 (synthetic).
T10 chain: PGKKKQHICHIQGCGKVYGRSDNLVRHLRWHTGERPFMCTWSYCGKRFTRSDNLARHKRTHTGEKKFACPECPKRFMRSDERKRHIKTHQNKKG
The essentials: as §1

A further data set deals with ZFP SBS#1018 (synthetic). The essentials:
as §1

The next data set has as its target ZFP SBS#1019 (synthetic). The essentials:
as §1

A further data set concerns the target T11, ZFP SBS#1022 (synthetic).
T11 chain: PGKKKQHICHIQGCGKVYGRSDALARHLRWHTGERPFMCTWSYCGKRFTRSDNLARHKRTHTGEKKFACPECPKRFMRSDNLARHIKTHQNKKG
The essentials:
as §1

The next data set addresses ZFP SBS#1025 (synthetic). The essentials:
as §1

The target of another data set is T12, ZFP SBS#1011 (synthetic).
T12 chain: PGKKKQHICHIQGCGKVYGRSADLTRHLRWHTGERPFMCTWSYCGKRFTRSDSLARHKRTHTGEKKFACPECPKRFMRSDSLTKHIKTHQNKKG
In a few lines:
as §1

Another data set concerns the target T13, ZFP SBS#989 (synthetic).
T13 chain: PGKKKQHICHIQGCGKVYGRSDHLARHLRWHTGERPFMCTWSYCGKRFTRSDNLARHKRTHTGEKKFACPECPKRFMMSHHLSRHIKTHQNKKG
The essentials:
as §1

A further data set has as its target ZFP SBS#438 (synthetic). The essentials: as §1
In another data set the target is ZFP SBS#368 (synthetic). In a few lines:
as §1

The target of another data set is ZFP SBS#991 (synthetic). In a few lines:
as §1

A further data set has as its target T14, ZFP SBS#990 (synthetic, UniProt P08047).
T14 chain: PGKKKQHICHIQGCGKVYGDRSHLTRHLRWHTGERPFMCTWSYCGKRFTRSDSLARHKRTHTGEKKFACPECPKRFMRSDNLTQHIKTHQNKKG
The essentials: as §1

The next data set addresses T15, ZFP SBS#1024 (synthetic, UniProt P08047).
T15 chain: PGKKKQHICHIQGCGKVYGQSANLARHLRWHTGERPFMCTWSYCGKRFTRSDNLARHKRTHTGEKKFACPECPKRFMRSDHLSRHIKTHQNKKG
In a few lines: as §1

In a further data set the target is ZFP SBS#995 (synthetic, UniProt P08047). The essentials:
as §1

The target of a further data set is ZFP SBS#1006 (synthetic). In a few lines:
as §1

Another data set deals with T16, ZFP SBS#981 (synthetic, UniProt P08047).
T16 chain: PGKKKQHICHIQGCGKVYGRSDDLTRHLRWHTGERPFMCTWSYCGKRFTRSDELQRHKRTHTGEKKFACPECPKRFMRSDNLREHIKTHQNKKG
In a few lines: as §1

The target of a further data set is ZFP SBS#1014 (synthetic). In a few lines:
as §1

The target of the next data set is ZFP SBS#1012 (synthetic). The essentials: as §1
Chain of ZFP SBS#1012 (synthetic) (chain, as listed by the source): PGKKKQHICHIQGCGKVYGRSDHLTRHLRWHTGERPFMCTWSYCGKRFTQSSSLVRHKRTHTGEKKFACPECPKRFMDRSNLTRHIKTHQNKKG
The target of another data set is T17, ZFP SBS#1008 (synthetic).
T17 chain: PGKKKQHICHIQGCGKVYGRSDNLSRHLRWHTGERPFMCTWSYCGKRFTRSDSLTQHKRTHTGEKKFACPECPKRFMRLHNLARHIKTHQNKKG
The essentials:
as §1

Another data set concerns the target T18, ZFP SBS#1009 (synthetic).
T18 chain: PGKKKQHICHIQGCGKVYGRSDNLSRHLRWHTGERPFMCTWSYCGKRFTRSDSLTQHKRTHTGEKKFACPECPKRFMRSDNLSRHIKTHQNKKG
The essentials:
as §1

In the next data set the target is ZFP SBS#999 (synthetic). The essentials: as §1
Chain of ZFP SBS#999 (synthetic) (chain, as listed by the source): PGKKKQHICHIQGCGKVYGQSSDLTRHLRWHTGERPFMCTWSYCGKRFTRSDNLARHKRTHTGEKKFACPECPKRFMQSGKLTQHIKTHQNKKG
The next data set concerns the target ZFP SBS#997 (synthetic). The essentials: as §1
The next data set deals with ZFP SBS#1013 (synthetic). In a few lines: as §1
A further data set addresses ZFP SBS#1010 (synthetic). In a few lines: as §1
The target of the next data set is ZFP SBS#1007 (synthetic). In a few lines: as §1
Chain of ZFP SBS#1007 (synthetic) (chain, as listed by the source): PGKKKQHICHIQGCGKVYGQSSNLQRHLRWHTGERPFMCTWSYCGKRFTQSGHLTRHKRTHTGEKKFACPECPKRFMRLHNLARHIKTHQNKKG

Chain of ZFP SBS#1018 (synthetic) (chain, as listed by the source): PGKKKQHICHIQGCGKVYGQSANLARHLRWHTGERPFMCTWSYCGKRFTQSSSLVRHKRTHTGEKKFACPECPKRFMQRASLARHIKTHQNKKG
Chain of ZFP SBS#997 (synthetic) (chain, as listed by the source): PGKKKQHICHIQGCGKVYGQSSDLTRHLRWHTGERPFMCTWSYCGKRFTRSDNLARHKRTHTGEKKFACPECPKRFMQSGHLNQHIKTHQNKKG
Chain of ZFP SBS#1010 (synthetic) (chain, as listed by the source): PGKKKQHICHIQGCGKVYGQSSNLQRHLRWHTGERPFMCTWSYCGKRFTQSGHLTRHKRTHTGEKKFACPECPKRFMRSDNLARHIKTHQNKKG
Chain of ZFP SBS#940 (synthetic) (chain, as listed by the source): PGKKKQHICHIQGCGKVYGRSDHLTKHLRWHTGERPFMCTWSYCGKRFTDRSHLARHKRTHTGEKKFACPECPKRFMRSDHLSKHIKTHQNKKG
Chain of ZFP SBS#1025 (synthetic) (chain, as listed by the source): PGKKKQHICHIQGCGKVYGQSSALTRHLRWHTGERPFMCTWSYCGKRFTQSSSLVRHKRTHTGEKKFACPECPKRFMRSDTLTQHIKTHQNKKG
Chain of ZFP SBS#1006 (synthetic) (chain, as listed by the source): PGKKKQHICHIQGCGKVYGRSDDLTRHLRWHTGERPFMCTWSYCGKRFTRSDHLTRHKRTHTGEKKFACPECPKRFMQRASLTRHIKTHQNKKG
Chain of ZFP SBS#995 (P08047 other isoform, or with tags, fused parts or gaps): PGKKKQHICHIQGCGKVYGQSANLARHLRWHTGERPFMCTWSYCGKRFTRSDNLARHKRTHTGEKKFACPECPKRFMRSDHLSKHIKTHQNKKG
Chain of ZFP SBS#1019 (synthetic) (chain, as listed by the source): as the sequence (P08047 other isoform, or with tags, fused parts or gaps) above, with Q20R, A22D, S83T, K84Q counted along it
Chain of ZFP SBS#991 (synthetic) (chain, as listed by the source): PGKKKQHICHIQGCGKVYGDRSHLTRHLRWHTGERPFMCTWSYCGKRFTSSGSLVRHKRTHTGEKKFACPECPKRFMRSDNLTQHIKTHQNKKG
Chain of ZFP SBS#368 (synthetic) (chain, as listed by the source): as the sequence (P08047 other isoform, or with tags, fused parts or gaps) above, with Q20R, A22D, N23E, A25T, N53H, A55T, H81N, S83T, K84R counted along it

B1: GGGGGCTGG (dsDNA)
DNA 1: GGGGGCTGG
DNA 2: CCAGCCCCC
Broadly, the Kd is the equilibrium constant for the complex coming apart. For B1, the figures for the Kd with ZFP SBS#994, in the data set with ZFP SBS#939 and with ZFP SBS#940 were 0.03 nM, 0.352 nM and 1.5 nM, respectively.

B2: CTGGATGAC (dsDNA)
DNA 1: CTGGATGAC
DNA 2: GTCATCCAG
The molecule B2 returned a dissociation constant (Kd) with ZFP SBS#1017 of 0.233 nM.

B3: GACGGCGAG (dsDNA)
DNA 1: GACGGCGAG
DNA 2: CTCGCCGTC
B3: the Kd with ZFP SBS#985 was determined as 0.965 nM; with ZFP SBS#984, 1.6 nM.

B4: GGAGCTGAC (dsDNA)
DNA 1: GGAGCTGAC
DNA 2: GTCAGCTCC
As to B4, the Kd with ZFP SBS#1001 amounted to 1.8 nM.

B5: CCGGGCTGG (dsDNA)
DNA 1: CCGGGCTGG
DNA 2: CCAGCCCGG
Turning to B5, the results for the Kd in the data set with ZFP SBS#983 and with ZFP SBS#982 were 1.39 nM and 0.03 nM, respectively.

B6: CAGTTGGTC (dsDNA)
DNA 1: CAGTTGGTC
DNA 2: GACCAACTG
In the case of B6, the Kd in the data set with ZFP SBS#996 is 9.6 nM; in the data set with ZFP SBS#1000, 11.2 nM; with ZFP SBS#1016 it was 0.09 nM.

B7: GCGGAGGAG (dsDNA)
DNA 1: GCGGAGGAG
DNA 2: CTCCTCCGC
With B7, the results for the Kd with ZFP SBS#1015 and in the data set with ZFP SBS#1002 were 8 pM and 0.028 nM, respectively.

B8: GTAGTAGAA (dsDNA)
DNA 1: GTAGTAGAA
DNA 2: TTCTACTAC
In the data set with ZFP SBS#1018, B8 came in with a Kd of 7.2 nM.

B9: AGGGAGGAG (dsDNA)
DNA 1: AGGGAGGAG
DNA 2: CTCCTCCCT
B9 had a dissociation constant Kd in the data set with ZFP SBS#1019 of 0.022 nM.

B10: GAGGAGGTG (dsDNA)
DNA 1: GAGGAGGTG
DNA 2: CACCTCCTC
Take B10: the Kd with ZFP SBS#1022 was determined as 0.01 nM; in the data set with ZFP SBS#1025 it was 0.115 nM.

B11: TTGGTGGCG (dsDNA)
DNA 1: TTGGTGGCG
DNA 2: CGCCACCAA
B11 gave a Kd with ZFP SBS#1011 of 0.03 nM.

B12: GGTGAGGGG (dsDNA)
DNA 1: GGTGAGGGG
DNA 2: CCCCTCACC
The molecule B12 registered a Kd with ZFP SBS#989 of 1.9 nM.

B13: GAGGGGGCG (dsDNA)
DNA 1: GAGGGGGCG
DNA 2: CGCCCCCTC
Take B13: the Kd amounted to 62.5 nM with ZFP SBS#438 and 3.5 nM in the data set with ZFP SBS#368.

B14: AAGGTGGGC (dsDNA)
DNA 1: AAGGTGGGC
DNA 2: GCCCACCTT
B14: the figures for the Kd in the data set with ZFP SBS#991 and with ZFP SBS#990 were 0.06 nM and 5.35 nM, respectively.

B15: GGGGAGGAA (dsDNA)
DNA 1: GGGGAGGAA
DNA 2: TTCCTCCCC
Regarding B15, the Kd in the data set with ZFP SBS#1024 and with ZFP SBS#995 was 0.08 nM throughout.

B16: GTAGGGGCG (dsDNA)
DNA 1: GTAGGGGCG
DNA 2: CGCCCCTAC
In turn, B16 had a Kd with ZFP SBS#1006 of 0.898 nM.

B17: CAGGCGGCG (dsDNA)
DNA 1: CAGGCGGCG
DNA 2: CGCCGCCTG
In the data set with ZFP SBS#981, B17 gave a Kd of 0.375 nM.

B18: GACGTAGGG (dsDNA)
DNA 1: GACGTAGGG
DNA 2: CCCTACGTC
Turning to B18, the Kd with ZFP SBS#1014 turned out to be 0.01 nM; with ZFP SBS#1012, 0.032 nM.

B19: GAGATGGAG (dsDNA)
DNA 1: GAGATGGAG
DNA 2: CTCCATCTC
Turning to B19, the Kd with ZFP SBS#1008 is 0.4 nM; in the data set with ZFP SBS#1009, 1.9 nM.

B20: AGAGAGGCT (dsDNA)
DNA 1: AGAGAGGCT
DNA 2: AGCCTCTCT
Regarding B20, the Kd with ZFP SBS#999 amounted to 0.6 nM; in the data set with ZFP SBS#997 it was 1.65 nM.

B21: GAGAGAGAT (dsDNA)
DNA 1: GAGAGAGAT
DNA 2: ATCTCTCTC
B21: the Kd with ZFP SBS#1013 is 0.15 nM; with ZFP SBS#1010, 8.2 nM; in the data set with ZFP SBS#1007, 167 nM.
